Experimental data as given in paper PMC3884669.

Target: Drosophila CstF64 (Drosophila (endogenous in Kc cells)) (UniProt Q86NL1)
Assay: co-IP

percent precipitated by the anti-CstF64 antibody: > 10%
Substance: Drosophila Lsm11 (endogenous) (natural protein)
